Laboratory results as given in PMC6713497, “Dimeric structures of quinol-dependent nitric oxide reductases (qNORs) revealed by cryo–electron microscopy” (Science Advances, 2019).

Biological target: the molecule itself
Experiment: cryo-EM structure; single-particle cryo-EM of detergent-solubilised qNOR-BRIL (50 mM tris, 150 mM NaCl, 0.05% DTM; wild type pH 7.0 at 3 mg/ml, Val495Ala pH 7.5 at 5 mg/ml), C2 symmetry imposed

B1: AxqNOR-BRIL (quinol-dependent nitric oxide reductase from Alcaligenes xylosoxidans fused with apocytochrome b562) (enzyme)
chain: not shown
For B1, the “stoichiometry N” value was 2.
